± gives the uncertainty stated by the source.
Experiment: self-splicing fitness, log relative to wild type (ln ratio); higher = more splicing; Tetrahymena group I intron in knt gene, E. coli kanamycin selection, DiMSum; sequences stand for … in CUCUCU…GGAGGGAAAAGUUAUCAGGCAUGCACCUGGUAGCUAGUCUUUAAACCAAUAGAUUGCAUCGGUUUAAAAGGCAAGACCGUCAAAUUGCGGGAAAGGGGUCAACAGCCGUUCAGUACCAAGUCUCAGGGGAAACUUUGAGAUGGCCUUGCAAAGGGUAUGGUAAUAAGCUGACGGACAUGGUCCUAACCACGCAGCCAAGUCCUAAGUCAACAGAUCUUCUGUUGAUAUGGAUGCAGUUCACAGACUAAAUGUCGGUCGGGGAAGAUGUAUUCUUCUCAUAAGAUAUAGUCGGACCUCUCCUUAAUGGGAGCUAGCGGAUGAAGUGAUGCAACACUGGAGCCGCUGGGAACUAAUUUGUAUGCGAAAGUAUAUUGAUUAGUUUUGGAGUACUCGUGGUCG
How it was run: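 The eight P1ex-region nucleotides of an intron in the knt kanamycin-resistance gene on pET-22b(+) were all randomised and the library put into E. coli BL21(DE3). Six replicate transformations were grown overnight at 37°C or 30°C on LB agar with or without 25 μg/mL kanamycin, together with 100 μg/mL carbenicillin, 50 μM IPTG and 0.2% rhamnose. Colonies were pooled and amplicon-sequenced on an Illumina HiSeq 2500. Fitness from DiMSum is the error-weighted combination of wild-type-normalised replicate fold changes, kanamycin over none.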

Sequence | self-splicing fitness (ln) (30 °C) | self-splicing fitness (ln) (37 °C)
AAAAAGCAAUAUUACGCUGG | -1.73 ± 0.11 | -0.618 ± 0.13
CGUCAGCAAUAUUACGUUAC | -2.78 ± 0.21 | -3.22 ± 0.24
ACUUAGCAAUAUUACGACUU | -0.0888 ± 0.085 | -0.156 ± 0.1
AACCAGCAAUAUUACGUUGA | -1.65 ± 0.083 | -0.421 ± 0.087
AGAGAGCAAUAUUACGUUCG | -2.2 ± 0.16 | -2.07 ± 0.23
GUAUAGCAAUAUUACGUCGU | -2.22 ± 0.12 | -0.949 ± 0.13
GUGCAGCAAUAUUACGGAUA | -1.76 ± 0.15 | -1.79 ± 0.19
CUUCAGCAAUAUUACGAAAC | -0.955 ± 0.5 | 
UAGCAGCAAUAUUACGUGCU | -1.12 ± 0.12 | -1.9 ± 0.16
GAGUAGCAAUAUUACGGGCA | -1.18 ± 0.22 | -1.05 ± 0.19
GGUGAGCAAUAUUACGCAGG | -3.7 ± 0.34 | -2.07 ± 0.41
GGUUAGCAAUAUUACGCCUU | -1.48 ± 0.11 | -0.406 ± 0.14
UCUAAGCAAUAUUACGUUAG | -2.19 ± 0.1 | -1.04 ± 0.1
CAGGAGCAAUAUUACGCAAG | -2.98 ± 0.35 | -1.06 ± 0.27
AUAUAGCAAUAUUACGAGAG |  | -2.29 ± 0.22
GUCUAGCAAUAUUACGAACU | -1.9 ± 0.2 | -1.12 ± 0.19
CGUAAGCAAUAUUACGGACG | -2.45 ± 0.12 | -1.89 ± 0.14
CUCUAGCAAUAUUACGGUGC | -2.62 ± 0.21 | 
CGACAGCAAUAUUACGAGGC | -1.34 ± 0.13 | -2.49 ± 0.31
CUAUAGCAAUAUUACGGGCU | -2.63 ± 0.19 | -3.38 ± 0.39
UGUUAGCAAUAUUACGAGGA |  | -1.92 ± 0.21
UGACAGCAAUAUUACGCCGG | -0.618 ± 0.12 | -0.791 ± 0.15
ACUCAGCAAUAUUACGGAGC | -3.55 ± 0.21 | -1.76 ± 0.17
UUAAAGCAAUAUUACGAGAG | -0.988 ± 0.061 | -0.259 ± 0.11
ACAAAGCAAUAUUACGAACG | -1.1 ± 0.084 | 0.144 ± 0.093
CGACAGCAAUAUUACGUAGA | -3.57 ± 0.13 | -2.12 ± 0.15

Sequence | self-splicing fitness (ln) (30 °C) | self-splicing fitness (ln) (37 °C)
GACAAGCAAUAUUACGUCUU | -2.08 ± 0.082 | -1.05 ± 0.085
CGCGAGCAAUAUUACGGGAC | -3.07 ± 0.25 | -2.43 ± 0.45
AUAUAGCAAUAUUACGUGGC |  | -2.67 ± 0.31
GUUUAGCAAUAUUACGACUG | -4.08 ± 0.39 | -0.416 ± 0.23
GAAAAGCAAUAUUACGUGAG | -1.53 ± 0.068 | -1.47 ± 0.11
ACCUAGCAAUAUUACGCACG | -0.85 ± 0.099 | 0.0662 ± 0.12
UAGCAGCAAUAUUACGCAAC | -2.32 ± 0.16 | -2.24 ± 0.22
CGGCAGCAAUAUUACGGAGA | -1.63 ± 0.3 | -1.62 ± 0.29
UACUAGCAAUAUUACGCUGC |  | -3.01 ± 0.43
ACGUAGCAAUAUUACGAGAC | -2.37 ± 0.3 | 
GGCUAGCAAUAUUACGGGGG | -3.9 ± 0.37 | -2.09 ± 0.21
CACCAGCAAUAUUACGGCCC | -1.8 ± 0.17 | -0.352 ± 0.19
GUGCAGCAAUAUUACGGACU | -1.28 ± 0.11 | -0.884 ± 0.14
UCAUAGCAAUAUUACGCCUU | -3.75 ± 0.4 | -1.52 ± 0.33
UACAAGCAAUAUUACGCGUU | -2.57 ± 0.096 | -1.71 ± 0.093
GAACAGCAAUAUUACGAUAA | -0.728 ± 0.076 | -0.326 ± 0.092
UGCCAGCAAUAUUACGCUGG | -3.35 ± 0.24 | -2.63 ± 0.28
GACCAGCAAUAUUACGUUCC | -2.31 ± 0.26 | -1.76 ± 0.28
UAUAAGCAAUAUUACGCAGC | -2.5 ± 0.23 | -2.43 ± 0.3
GAUUAGCAAUAUUACGAAGU | -2.54 ± 0.16 | -0.783 ± 0.12
GCAGAGCAAUAUUACGGUAC | -2.65 ± 0.22 | -1.79 ± 0.45
GGCUAGCAAUAUUACGAGAG | -2.09 ± 0.16 | -3.24 ± 0.32
GUGGAGCAAUAUUACGUUAG | -3.94 ± 0.24 | -2.35 ± 0.2
GUAGAGCAAUAUUACGACGC | -0.313 ± 0.16 | 0.929 ± 0.22
AACGAGCAAUAUUACGAUUC |  | 0.32 ± 0.17
CCCUAGCAAUAUUACGUAAU | -3.5 ± 0.22 | -2.83 ± 0.25

Sequence | self-splicing fitness (ln) (30 °C) | self-splicing fitness (ln) (37 °C)
UGACAGCAAUAUUACGGCUC | -1.37 ± 0.16 | -0.546 ± 0.17
GAUUAGCAAUAUUACGGGAC | -2.53 ± 0.18 | -1.53 ± 0.14
ACACAGCAAUAUUACGCAUG | -1.04 ± 0.075 | -0.692 ± 0.081
UAUAAGCAAUAUUACGUACU | -1.69 ± 0.16 | -0.993 ± 0.11
CAGUAGCAAUAUUACGCGAU | -2.39 ± 0.28 | -2.67 ± 0.34
UAUGAGCAAUAUUACGAAGU | -4.08 ± 0.42 | -1.93 ± 0.23
CCCAAGCAAUAUUACGCCAU | -3.28 ± 0.22 | -2.5 ± 0.23
UGGGAGCAAUAUUACGCACU | -3.4 ± 0.35 | -1.76 ± 0.33
UAACAGCAAUAUUACGCAUA | -0.955 ± 0.075 | -0.0703 ± 0.069
UUUAAGCAAUAUUACGAACU | -2.51 ± 0.23 | -1.98 ± 0.23
GGAAAGCAAUAUUACGGGAC | -2.53 ± 0.1 | -1.18 ± 0.11
UGCGAGCAAUAUUACGCAGC |  | -1.49 ± 0.37
ACCUAGCAAUAUUACGAUCA | -1.23 ± 0.17 | -1.19 ± 0.18
CGCCAGCAAUAUUACGGCUA | -0.576 ± 0.061 | -0.172 ± 0.068
GCCUAGCAAUAUUACGUCGC | -1.46 ± 0.17 | -1.01 ± 0.16
GCGUAGCAAUAUUACGGGGG | -3.87 ± 0.21 | -1.78 ± 0.17
CACGAGCAAUAUUACGUGGG | -4.45 ± 0.29 | -2.71 ± 0.18
AUGGAGCAAUAUUACGAUAG | -3.59 ± 0.4 | -1.67 ± 0.32
UACUAGCAAUAUUACGUCGG | -2.29 ± 0.15 | -2.18 ± 0.18
UCGUAGCAAUAUUACGGUGC | -3.62 ± 0.33 | -3.15 ± 0.47
UACGAGCAAUAUUACGAAAG | -2.75 ± 0.42 | -1.29 ± 0.45
CGGGAGCAAUAUUACGCCUA | -2.84 ± 0.27 | -2.14 ± 0.19
UCUAAGCAAUAUUACGAUAC | -2.38 ± 0.25 | -2.95 ± 0.47
CUAAAGCAAUAUUACGUAAG | -0.149 ± 0.07 | -0.575 ± 0.085
AGUAAGCAAUAUUACGUAAG | -1.35 ± 0.13 | -1.96 ± 0.23
GAAUAGCAAUAUUACGCGAC | -1.89 ± 0.2 | 0.34 ± 0.18
